Literature values as cited in patent US20120225099A1, “COMPOSITIONS FOR AND METHODS OF […] CYCLASE C” (Thomas Jefferson University, priority 2009, published 2012).
Ends that are not written are not given here.

Target: guanylate cyclase (ST receptors) (Homo sapiens, UniProt P25092)
Conditions: relative to native ST; about

guanylate cyclase (ST receptors), sequence (P25092 24-1073): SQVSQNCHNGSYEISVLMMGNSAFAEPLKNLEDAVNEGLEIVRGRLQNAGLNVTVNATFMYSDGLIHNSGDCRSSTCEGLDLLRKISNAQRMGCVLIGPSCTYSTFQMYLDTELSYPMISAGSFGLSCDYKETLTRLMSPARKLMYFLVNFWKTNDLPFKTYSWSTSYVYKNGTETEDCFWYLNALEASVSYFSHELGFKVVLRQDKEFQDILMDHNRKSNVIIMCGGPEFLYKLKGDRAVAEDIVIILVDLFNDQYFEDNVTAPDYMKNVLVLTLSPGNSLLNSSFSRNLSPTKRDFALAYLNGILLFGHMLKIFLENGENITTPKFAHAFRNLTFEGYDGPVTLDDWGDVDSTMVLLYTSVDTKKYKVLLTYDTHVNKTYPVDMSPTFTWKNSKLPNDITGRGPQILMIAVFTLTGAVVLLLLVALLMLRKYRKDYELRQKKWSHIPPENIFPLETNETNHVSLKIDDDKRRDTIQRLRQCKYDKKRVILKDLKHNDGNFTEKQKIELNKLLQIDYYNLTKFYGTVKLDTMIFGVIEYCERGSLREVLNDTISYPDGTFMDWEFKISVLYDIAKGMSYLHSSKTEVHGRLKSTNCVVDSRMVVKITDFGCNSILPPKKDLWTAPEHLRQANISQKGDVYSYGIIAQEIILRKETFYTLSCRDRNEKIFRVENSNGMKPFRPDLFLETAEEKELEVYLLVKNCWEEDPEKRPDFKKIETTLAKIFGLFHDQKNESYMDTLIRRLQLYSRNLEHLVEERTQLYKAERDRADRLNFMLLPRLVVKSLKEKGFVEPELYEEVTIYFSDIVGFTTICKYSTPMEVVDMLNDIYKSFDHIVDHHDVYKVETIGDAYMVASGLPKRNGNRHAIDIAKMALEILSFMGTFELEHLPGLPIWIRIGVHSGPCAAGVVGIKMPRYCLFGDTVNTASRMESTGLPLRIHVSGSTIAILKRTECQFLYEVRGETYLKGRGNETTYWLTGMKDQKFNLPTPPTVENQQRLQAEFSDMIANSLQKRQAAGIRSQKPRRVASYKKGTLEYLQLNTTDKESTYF

## PNTCEICAYAACTGC (cysteine pairing not given here) [Guanylin, 15 amino acid peptide identified in mammalian intestine; native GCC ligand]
  activates guanylate cyclase at a level less than native ST: 10- to 100 fold
